Measured values reported in US20120316071A1 (published 2012).
Positions count from the first letter of the chain named. Numbers in names are those of the source. Values belong to the binder of their own block, whether it stands above or below them.

Columns and labels:
[1] = molecular target: T1, rHuman IGF-1 sR (insulin-like growth factor-1 soluble receptor), CF (R&D Systems Cat#391-GR) (human, UniProt P08069 31-932); assay: ECL multispot (MSD), antigen spotted, Fab in solution; blank spot 356
T1 construct: Bought soluble receptor

[2] = molecular target: T2, rHuman Erythropoietin R/Fc Chimera, CF (R&D Systems Cat#963-ER) (human, UniProt P19235 25-250); assay: as above
T2 construct: Bought reagent; also called EPO R; Epo R/Fc
T2 sequence (looked up): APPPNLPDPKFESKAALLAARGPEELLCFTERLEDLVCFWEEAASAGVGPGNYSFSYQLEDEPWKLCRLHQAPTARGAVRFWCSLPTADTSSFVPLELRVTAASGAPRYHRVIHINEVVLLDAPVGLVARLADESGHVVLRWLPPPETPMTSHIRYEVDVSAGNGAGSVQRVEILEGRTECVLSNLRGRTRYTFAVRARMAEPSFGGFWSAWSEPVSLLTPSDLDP

[3] = molecular target: T3, rHuman ErbB2/Fc Chimera, CF (R&D Systems Cat#1129-ER) (human, UniProt P04626 23-652); assay: as above
T3 construct: Bought reagent

[4] = molecular target: T4, rHuman CD44/Fc Chimera, CF (R&D Systems Cat#3660-CD) (human, UniProt P16070 21-220); assay: as above
T4 construct: Bought reagent

[5] = molecular target: T5, Recombinant Human DLL4 (R&D Systems Cat#1506-D4/CF) (human, UniProt Q9NR61 27-524); assay: as above
T5 construct: Bought recombinant protein; also called delta-like protein 4; rHuman DLL4

[6] = molecular target: T6, rHuman HGF R/c-MET/Fc Chimera, CF (R&D Systems Cat#358-MT/CF) (human, UniProt P08581 25-932); assay: as above
T6 construct: Bought reagent; also called HGF R/Fc

[7] = molecular target: T7, rHuman EGF R/Fc Chimera, CF (R&D Systems Cat#344-ER) (human, UniProt P00533 25-645); assay: as above
T7 construct: Bought reagent

[8] = molecular target: T8, rHuman P-Cadherin/Fc Chimera, CF (R&D Systems Cat#861-PC) (human, UniProt P22223 108-654); assay: as above
T8 construct: Bought reagent

[9] = molecular target: T9, rHuman Notch-1/Fc Chimera, CF (R&D Systems Cat#3647-TK) (human, UniProt P46531 19-526); assay: as above
T9 construct: Bought reagent

[10] = molecular target: T1, rHuman IGF-1 sR (insulin-like growth …); assay: ECL multispot (MSD), antigen spotted, Fab in solution; blank spot 272
[11] = molecular target: T2, rHuman Erythropoietin R/Fc Chimera, CF …; assay: as above
[12] = molecular target: T3, rHuman ErbB2/Fc Chimera, CF (R&D …); assay: as above
[13] = molecular target: T4, rHuman CD44/Fc Chimera, CF (R&D Systems …); assay: as above
[14] = molecular target: T5, Recombinant Human DLL4 (R&D Systems …); assay: as above
[15] = molecular target: T6, rHuman HGF R/c-MET/Fc Chimera, CF (R&D …); assay: as above
[16] = molecular target: T7, rHuman EGF R/Fc Chimera, CF (R&D …); assay: as above
[17] = molecular target: T8, rHuman P-Cadherin/Fc Chimera, CF (R&D …); assay: as above
[18] = molecular target: T9, rHuman Notch-1/Fc Chimera, CF (R&D …); assay: as above
[19] = molecular target: T1, rHuman IGF-1 sR (insulin-like growth …); assay: ECL multispot (MSD), antigen spotted, Fab in solution; blank spot 289
[20] = molecular target: T2, rHuman Erythropoietin R/Fc Chimera, CF …; assay: as above
[21] = molecular target: T3, rHuman ErbB2/Fc Chimera, CF (R&D …); assay: as above
[22] = molecular target: T4, rHuman CD44/Fc Chimera, CF (R&D Systems …); assay: as above
[23] = molecular target: T5, Recombinant Human DLL4 (R&D Systems …); assay: as above
[24] = molecular target: T6, rHuman HGF R/c-MET/Fc Chimera, CF (R&D …); assay: as above
[25] = molecular target: T7, rHuman EGF R/Fc Chimera, CF (R&D …); assay: as above
[26] = molecular target: T8, rHuman P-Cadherin/Fc Chimera, CF (R&D …); assay: as above
[27] = molecular target: T9, rHuman Notch-1/Fc Chimera, CF (R&D …); assay: as above
[28] = molecular target: T1, rHuman IGF-1 sR (insulin-like growth …); assay: ECL multispot (MSD), antigen spotted, Fab in solution; blank spot 198
[29] = molecular target: T2, rHuman Erythropoietin R/Fc Chimera, CF …; assay: as above
[30] = molecular target: T3, rHuman ErbB2/Fc Chimera, CF (R&D …); assay: as above
[31] = molecular target: T4, rHuman CD44/Fc Chimera, CF (R&D Systems …); assay: as above
[32] = molecular target: T5, Recombinant Human DLL4 (R&D Systems …); assay: as above
[33] = molecular target: T6, rHuman HGF R/c-MET/Fc Chimera, CF (R&D …); assay: as above
[34] = molecular target: T7, rHuman EGF R/Fc Chimera, CF (R&D …); assay: as above
[35] = molecular target: T8, rHuman P-Cadherin/Fc Chimera, CF (R&D …); assay: as above
[36] = molecular target: T9, rHuman Notch-1/Fc Chimera, CF (R&D …); assay: as above

T6 sequence (P08581 25-932, change not shown): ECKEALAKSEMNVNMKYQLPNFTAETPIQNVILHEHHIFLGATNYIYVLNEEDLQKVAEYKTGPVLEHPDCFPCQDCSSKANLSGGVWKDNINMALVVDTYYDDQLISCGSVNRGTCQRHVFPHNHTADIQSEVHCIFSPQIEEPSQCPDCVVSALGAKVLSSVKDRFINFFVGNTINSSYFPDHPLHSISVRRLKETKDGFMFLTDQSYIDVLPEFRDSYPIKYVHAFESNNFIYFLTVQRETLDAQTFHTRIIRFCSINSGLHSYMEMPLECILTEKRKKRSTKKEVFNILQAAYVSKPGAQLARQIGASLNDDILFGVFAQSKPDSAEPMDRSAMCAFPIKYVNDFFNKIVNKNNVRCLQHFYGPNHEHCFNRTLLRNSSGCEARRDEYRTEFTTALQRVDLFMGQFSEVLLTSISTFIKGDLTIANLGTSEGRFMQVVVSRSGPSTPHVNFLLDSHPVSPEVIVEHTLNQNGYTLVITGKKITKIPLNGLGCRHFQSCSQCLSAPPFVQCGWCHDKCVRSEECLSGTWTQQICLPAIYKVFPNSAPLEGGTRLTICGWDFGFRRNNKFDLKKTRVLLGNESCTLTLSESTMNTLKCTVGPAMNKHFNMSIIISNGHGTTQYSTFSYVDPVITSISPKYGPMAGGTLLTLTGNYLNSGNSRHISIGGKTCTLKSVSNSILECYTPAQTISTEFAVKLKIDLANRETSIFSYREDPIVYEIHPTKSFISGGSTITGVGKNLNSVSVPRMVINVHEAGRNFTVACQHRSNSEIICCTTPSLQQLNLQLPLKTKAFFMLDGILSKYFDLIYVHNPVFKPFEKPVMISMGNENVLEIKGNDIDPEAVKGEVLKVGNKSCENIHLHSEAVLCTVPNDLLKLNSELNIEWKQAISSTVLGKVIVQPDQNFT

ECL signal [19]: 471
ECL signal [20]: 542
ECL signal [21]: 289
ECL signal [22]: 500
ECL signal [23]: 191000
ECL signal [24]: 399
ECL signal [25]: 398
ECL signal [26]: 342
ECL signal [27]: 372
B3: Fab VH1-46_IGHD6-6*01_IGHJ1*01 S102A/S103P/S104F/H111F (APFF) & L6_IGKJ1*01 S30W (Fab, V domains shown)
VH: QVQLVQSGAEVKKPGASVKVSCKASGYTFTSYYMHWVRQAPGQGLEWMGIINPSGGSTSYAQKFQGRVTMTRDTSTSTVYMELSSLRSEDTAVYYCAREEYAPFSAEYFQFWGQGTLVTVSS
VL: EIVLTQSPATLSLSPGERATLSCRASQSVWSYLAWYQQKPGQAPRLLIYDASNRATGIPARFSGSGSGTDFTLTISSLEPEDFAVYYCQQRSNWPPWTFGQGTKVEIKR
notes: Tested as Fab made in E. coli: VH joined to CH1 from Plasmid A (His6 and Flag tags), VL joined to kappa CL from Plasmid C; also called APFF / S30W

ECL signal [28]: 342
ECL signal [29]: 423
ECL signal [30]: 262
ECL signal [31]: 400
ECL signal [32]: 203000
ECL signal [33]: 339
ECL signal [34]: 353
ECL signal [35]: 298
ECL signal [36]: 243
B4: Fab VH1-46_IGHD6-6*01_IGHJ1*01 S102A/S103P/S104F/H111F (APFF) & L6_IGKJ1*01 S30Q (Fab, V domains shown)
VH: B3 VH
VL: B3 VL with W30Q
notes: Tested as Fab made in E. coli: VH joined to CH1 from Plasmid A (His6 and Flag tags), VL joined to kappa CL from Plasmid C; also called APFF / S30Q

The next lines start with the binder.

B1: Fab VH1-46_IGHD6-6*01_IGHJ1*01 S102A/S103P/S104F/H111F (APFF) & L6_IGKJ1*01 S30A (Fab, V domains shown)
VH: B3 VH
VL: B3 VL with W30A
notes: Tested as Fab made in E. coli: VH joined to CH1 from Plasmid A (His6 and Flag tags), VL joined to kappa CL from Plasmid C; also called APFF / S30A
ECL signal [1]: 400
ECL signal [2]: 561
ECL signal [3]: 251
ECL signal [4]: 390
ECL signal [5]: 184000
ECL signal [6]: 414
ECL signal [7]: 322
ECL signal [8]: 454
ECL signal [9]: 380

B2: Fab VH1-46_IGHD6-6*01_IGHJ1*01 S102A/S103P/S104F/H111F (APFF) & L6_IGKJ1*01 S30G (Fab, V domains shown)
VH: B3 VH
VL: B3 VL with W30G
notes: Tested as Fab made in E. coli: VH joined to CH1 from Plasmid A (His6 and Flag tags), VL joined to kappa CL from Plasmid C; also called APFF / S30G
ECL signal [10]: 393
ECL signal [11]: 485
ECL signal [12]: 404
ECL signal [13]: 427
ECL signal [14]: 180000
ECL signal [15]: 355
ECL signal [16]: 387
ECL signal [17]: 369
ECL signal [18]: 382
